Measurements published in patent US20170145086A1 (VISTERRA, published 2017).

How the values were obtained:
[1] = biological target: T1, HA-GCN4 hAPRIL (amino acid residues 105-250) (human, UniProt O75888 105-250); test: blocking ELISA; blocked: human APRIL binding to BCMA-Fc
T1 construct: Bought (R&D Systems); also called HA-tagged GCN4 human APRIL; HA-GCN4-huAPRIL; not shown: N-terminal HA tag; GCN4 isoleucine zipper oligomerization domain
T1 sequence: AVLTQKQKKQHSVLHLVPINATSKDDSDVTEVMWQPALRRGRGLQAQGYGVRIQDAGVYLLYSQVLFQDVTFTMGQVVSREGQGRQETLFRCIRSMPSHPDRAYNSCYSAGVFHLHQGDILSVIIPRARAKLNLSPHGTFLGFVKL
Procedure: (§1) Recombinant TACI-Fc or BCMA-Fc was coated on 96 well plates in 0.1 M carbonate-bicarbonate buffer (pH 9.6), overnight at 4° C. Plates were washed three times with 1×PBST (PBS+0.025% Tween 20) followed by blocking with 1% BSA in 1×PBS, 37° C. for 1 hour. All subsequent wash steps were carried out with 1×PBST. To assess antibody blocking, either 15 ng/mL or 50 ng/mL HA-GCN4-huAPRIL was preincubated with varying antibody concentrations ranging from 0.03-30 μg/mL in binding buffer comprised of 1% BSA and 0.025% Tween-20 in 1×PBS. Preincubation was carried out at 30° C. for 1 hour with mixing. Antibody-APRIL premix with 50 ng/mL APRIL or 15 ng/mL APRIL was then added to TACI-Fc coated or BCMA-Fc coated plates, respectively, and incubated for an additional hour at 30° C. HA-tagged APRIL binding to either receptor was quantified using a goat polyclonal anti-HA tag-HRP antibody (Abcam) added at a 1:10000 dilution followed by colorimetric development using 100 μl/well of freshly prepared TMB substrate (KPL) carried out for up to 30 minutes at room temperature before quenching enzymatic reaction by the addition of 1N sulfuric acid. ELISA signal was quantified by absorbance at 450 nm. ELISA data was analyzed by non-linear regression. IC₅₀ values were calculated based on a 4 parameter fit of antibody titration curves. […] Non-blocking antibodies Aprly-1 or Aprly-5 (Enzo Biosciences) were used as negative controls. Mouse specific, blocking antibody aprily-1-1 (Adipogen) was generally used as a positive control in experiments using mouse APRIL (HA-GCN4-mAPRIL).
Assay is based on receptor blocking ELISA using recombinant human APRIL (R&D Systems) and either human TACI-Fc (FIG. 30A) or BCMA-Fc (FIG. 30B).

[2] = biological target: T1, HA-GCN4 hAPRIL (amino acid residues …); test: blocking ELISA; blocked: human APRIL binding to TACI-Fc
[3] = biological target: T1, HA-GCN4 hAPRIL (amino acid residues …); test: indirect ELISA on human APRIL
[4] = biological target: T1, HA-GCN4 hAPRIL (amino acid residues …); test: cell-based or functional assay
[5] = biological target: T1, HA-GCN4 hAPRIL (amino acid residues …); test: blocking ELISA; blocked: human APRIL binding to human BCMA-Fc; parameters: concentration or dose not given beside the values
Procedure: as §1

[6] = biological target: T1, HA-GCN4 hAPRIL (amino acid residues …); test: blocking ELISA; blocked: human APRIL binding to human TACI-Fc; parameters: concentration or dose not given beside the values
Procedure: as §1

[7] = biological target: T1, HA-GCN4 hAPRIL (amino acid residues …); test: blocking ELISA, 4-parameter fit; blocked: human APRIL binding to human BCMA-Fc
Procedure: as §1

[8] = biological target: T1, HA-GCN4 hAPRIL (amino acid residues …); test: blocking ELISA, 4-parameter fit; blocked: human APRIL binding to human TACI-Fc
Procedure: as §1

[9] = biological target: T1, HA-GCN4 hAPRIL (amino acid residues …); test: blocking ELISA; blocked: human APRIL binding to human BCMA-Fc; parameters: concentration or dose not given beside the values; remark: listed apart in the source
Procedure: (§2) FIGS. 19A-19B depict the antibody inhibition of APRIL binding to TNFSF receptors TACI (FIG. 19A) and BCMA (FIG. 19B). Assay is based on blocking ELISA using recombinant human APRIL (R&D Systems) and Human TACI-Fc. Inhibition was analyzed by non-linear regression using a four parameter fit.
as §1

[10] = biological target: T1, HA-GCN4 hAPRIL (amino acid residues …); test: blocking ELISA; blocked: human APRIL binding to human TACI-Fc; parameters: concentration or dose not given beside the values; remark: listed apart in the source
Procedure: as §2, §1

[11] = biological target: T1, HA-GCN4 hAPRIL (amino acid residues …); test: blocking ELISA, 4-parameter fit; blocked: human APRIL binding to human BCMA-Fc; remark: listed apart in the source
Procedure: as §2, §1

[12] = biological target: T1, HA-GCN4 hAPRIL (amino acid residues …); test: blocking ELISA, 4-parameter fit; blocked: human APRIL binding to human TACI-Fc; remark: listed apart in the source
Procedure: as §2, §1

[13] = biological target: T1, HA-GCN4 hAPRIL (amino acid residues …); test: indirect ELISA on human APRIL; column head prints IC50 (pM), legend paragraph 725 calls the values EC50
From the text: Purified antibodies were further characterized for APRIL binding, APRIL species cross reactivity (human APRIL vs. mouse APRIL), and receptor blocking activity using TACI-Fc. For binding, an APRIL-based indirect ELISA was used to determine by first approximation the relative affinity of purified anti-APRIL antibodies to either human APRIL or mouse APRIL. ELISA method was as generally described above. […] Blocking and wash steps were completed as described. Binding of anti-APRIL antibodies to APRIL was quantified using an 8 point dilution of test antibody that spanned over a four log scale. Antibody binding to APRIL was detected using a rabbit anti-mouse IgG (H+L)-HRP conjugate (Jackson ImmunoResearch Laboratories). Antibody binding data was analyzed by non-linear regression analysis using a 3 parameter fit to determine max binding and apparent EC₅₀ values. […] Mouse specific antibody Apry-1-1 (Adipogen) was likewise used for quantification of antibody binding to mouse APRIL.

B1: 2419-0406 (antibody, V domains shown)
VH: QVQLVQSGAEVKKPGSSVKVSCKASGYTFTDYTIHWVRQAPGQGLEWMGWIYPLRGSINYAEKFKGRVTLTADKSTSTVYMELSSLRSEDTAVYFCARHGAYYSNAFDYWGQGTLVTVSS
VL: EIVMTQSPATLSVSPGERATLSCRASESVDNDGIRFLHWYQQKPGQAPRLLIYRASTRATGIPARFSGSGSRTEFTLTISSLQSEDFAVYYCQQSNKDPYTFGGGTKVEIK
[1]
  IC50: 0.25 nM
  Relative Activity (normalised to 2419): 1.05
[2]
  IC50: 0.33 nM
  Relative Activity (normalised to 2419): 1.2

B2: 2419-1305 (antibody, V domains shown)
VH: QVQLVQSGAEVKKPGASVKVSCKASGYTFTDYTIHWVRQATGQGLEWMGWIYPLRGSINYAQKFQGRVTMTANKSISTVYMELSSLRSEDTAVYFCARHGAYYSNAFDYWGQGTLVTVSS
VL: EIVMTQSPATLSVSPGERATLSCRASESVDNDGIRFLHWYQQKPGQAPRLLIYRASNRETGIPARFSGSGSGTEFTLTISSLQSEDFAVYYCQQSNKDPYTFGGGTKVEIK
[3]
  EC50: 0.00241 nM
[1]
  IC50: 0.15 nM
  Relative Activity (normalised to 2419): 0.62
[2]
  IC50: 0.29 nM
  Relative Activity (normalised to 2419): 1.06

B3: 2419-1306 (antibody, V domains shown)
VH: QVQLVQSGAEVKKPGASVKVSCKASGYTFTDYTIHWVRQATGQGLEWMGWIYPLRGSINYAQKFQGRVTMTANKSISTVYMELSSLRSEDTAVYFCARHGAYYSNAFDYWGQGTLVTVSS
VL: EIVMTQSPATLSVSPGERATLSCRASESVDNDGIRFLHWYQQKPGQAPRLLIYRASTRATGIPARFSGSGSRTEFTLTISSLQSEDFAVYYCQQSNKDPYTFGGGTKVEIK
[4]
  IC50 (inhibition of APRIL-mediated BCMA NFκB signaling): ~0.3 nM
  IC50 (inhibition of APRIL-mediated TACI NFκB signaling): ~0.66 nM
[3]
  EC50: 0.003 nM
[1]
  IC50: 0.17 nM
  Relative Activity (normalised to 2419): 0.72
[2]
  IC50: 0.28 nM
  Relative Activity (normalised to 2419): 1.03

B4: monoclonal antibody 2419-0205 (antibody, IgG2, V domains shown)
VH: QVQLVQSGAEVKKPGSSVKVSCKASGYTFTDYTIHWVRQAPGQGLEWMGWIYPLRGSINYAQKFQGRVTITADKSTSTAYMELSSLRSEDTAVYFCARHGAYYSNAFDYWGQGTLVTVSS
VL: EIVMTQSPATLSVSPGERATLSCRASESVDNDGIRFLHWYQQKPGQAPRLLIYRASNRETGIPARFSGSGSGTEFTLTISSLQSEDFAVYYCQQSNKDPYTFGGGTKVEIK
[4]
  IC50 (inhibition of APRIL-mediated BCMA NFκB signaling): ~0.32 nM
  IC50 (inhibition of APRIL-mediated TACI NFκB signaling): ~0.81 nM
[3]
  EC50: 0.00226 nM
[1]
  IC50: 0.17 nM
  Relative Activity (normalised to 2419): 0.71
[2]
  IC50: 0.31 nM
  Relative Activity (normalised to 2419): 1.12

B5: 4540-033 (antibody, V domains shown)
VH: QVQLVQSGAEVKKPGASVKVSCKASGYTFADYYINWVRQAPGQGLEWMGWIFPGSGSTYYAQKLQGRVTMTTDTSTSTAYMELRSLRSDDTAVYYCARGDSGRAMDYWGQGTLVTVSS
VL: DIQMTQSPSSLSASVGDRVTITCQASQDINKYLAWYQHKPGKAPKLLIHYTSTLETGVPSRFSGSGSGTDFTFTISSLQPEDIATYYCLQYDNLLTFGGGTKVEIK
[1]
  IC50: 3.68 nM
  Relative Activity (normalised to 2419): 15.6
[2]
  IC50: 0.35 nM
  Relative Activity (normalised to 2419): 1.26

B6: monoclonal antibody 3327 (antibody, V domains shown)
VH: EVQLQQSGPELVKPGASVKMSCKASGYSFTGYFMNWVKQSHGKSLEWIGRINPYNGDTFYNQKFKGKATLTVDKSSSTAHMELRSLTSEDSALYYCASEGDGYYWYFDVWGAGTTVTVSS
VL: not shown
[5]
  % Inhibition: 99%
[6]
  % Inhibition: 89%
[7]
  IC50: 2.35 nM
[8]
  IC50: 3.16 nM

B7: 3934 (antibody, V domains shown)
VH: QVQLQQSGPELVKPGASVKLSCKAAGYIFTDYTINWVKQSPGQGLEWIGWIYPGSGNRKYNDKFKGKATMTADKSSSTAYMQLSSLTSEDSAVYFCARESNYVGYYAMDYWGQGTSVTVSS
VL: DVLMTQTPLSLPVSLGDQASISCRSSQSVVNSNGNTYLEWYLQKPGQSPNLLIYKVSNRFSGVPDRFSGSGSGTDFTLKISRVEAEDLGVYYCFQGSHVPWTFGGGTKLEIK
notes: also called monoclonal antibody 3934
[9]
  % Inhibition: 98%
[10]
  % Inhibition: 96%
[11]
  IC50: 0.21 nM
[12]
  IC50: 2.43 nM
[13]
  EC50: 0.0101 nM

B8: 2419-0806 (antibody, V domains shown)
VH: EVQLVQSGAEVKKPGESLKISCKASGYTFTDYTIHWVRQMPGKGLEWMGWIYPLRGSINYSPSFQGQVTISADKSISTVYLQWSSLKASDTAMYFCARHGAYYSNAFDYWGQGTLVTVSS
VL: EIVMTQSPATLSVSPGERATLSCRASESVDNDGIRFLHWYQQKPGQAPRLLIYRASTRATGIPARFSGSGSRTEFTLTISSLQSEDFAVYYCQQSNKDPYTFGGGTKVEIK
[3]
  EC50: 0.00231 nM
[1]
  IC50: 0.21 nM
  Relative Activity (normalised to 2419): 0.89
[2]
  IC50: 0.32 nM
  Relative Activity (normalised to 2419): 1.17

B9: 2419-1310 (antibody, V domains shown)
VH: QVQLVQSGAEVKKPGASVKVSCKASGYTFTDYTIHWVRQATGQGLEWMGWIYPLRGSINYAQKFQGRVTMTANKSISTVYMELSSLRSEDTAVYFCARHGAYYSNAFDYWGQGTLVTVSS
VL: DIVMTQSPDSLAVSLGERATINCKSSQSVDNDGIRFLHWYQQKPGQPPKLLIYRASTRESGVPDRFSGSGSGTDFTLTISSLQAEDVAVYYCQQSNKDPYTFGGGTKVEIK
[3]
  EC50: 0.00219 nM
[1]
  IC50: 0.27 nM
  Relative Activity (normalised to 2419): 1.14
[2]
  IC50: 0.3 nM
  Relative Activity (normalised to 2419): 1.09
